Measurements: paper PMC8386582

Target: aCD19A (anti-CD19-A192) Nanoworm
Experiment: SEC-MALS

stoichiometry N: 186
B1: aCD19A (anti-CD19-A192) Nanoworm (scFv, V domains shown)
VH: QVQLQQSGAELVRPGSSVKISCKASGYAFSSYWMNWVKQRPGQGLEWIGQIWPGDGDTNYNGKFKGKATLTADESSSTAYMQLSSLASEDSAVYFCARRETTTVGRYYYAMDYWGQGTTVTVSS
VL: DIQLTQSPASLAVSLGQRATISCKASQSVDYDGDSYLNWYQQIPGQPPKLLIYDASNLVSGIPPRFSGSGSGTDFTLNIHPVEKVDAATYHCQQSTEDPWTFGGGTKLEIK
